Data from the supplement of paper PMC10724198.
± gives the standard deviation of the averaged measurements.

Assays:
Saccharomyces cerevisiae [1] = experiment: protein stability index of tFT-peptide fusion (C-terminal peptide) (PSI (0-1 scale)); higher = more stable (slower turnover)
Description: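 MPS profiling in S. cerevisiae of the tFT-X12 degron library: putative degron peptides plus stable controls, 12 aa, fused to the C-terminus of a sfGFP-mCherry timer. Cells are FACS-sorted into 8 mCherry/sfGFP bins and deep-sequenced. PSI runs from 0 (unstable) to 1 (stable). Backgrounds are wild type, das1Δ and doa10Δ at 30 °C, and wild type, das1Δ, cdc34-1 and cdc53-1 at 37 °C; 2-3 technical replicates each.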

Saccharomyces cerevisiae [2] = experiment: as above; conditions: genetic background: wild type; temperature: 30 C
[3] = genetic background: cdc34-1, temperature: 37 C
[4] = genetic background: cdc53-1, temperature: 37 C
[5] = genetic background: das1 deletion, temperature: 30 C
[6] = genetic background: das1 deletion, temperature: 37 C
[7] = genetic background: doa10 deletion, temperature: 30 C
[8] = genetic background: wild type, temperature: 30 C
[9] = genetic background: wild type, temperature: 37 C
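Note: PSI is a weighted mean of sequencing reads over stability bins, variants kept only with over 10 reads, mCherry proximal and sfGFP distal, peptide attached via GGGS linker.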

| Sequence | protein stability index (Saccharomyces cerevisiae [1]; [3]) | protein stability index (Saccharomyces cerevisiae [1]; [4]) | protein stability index (Saccharomyces cerevisiae [1]; [5]) | protein stability index (Saccharomyces cerevisiae [1]; [6]) | protein stability index (Saccharomyces cerevisiae [1]; [7]) | protein stability index (Saccharomyces cerevisiae [1]; [8]) | protein stability index (Saccharomyces cerevisiae [1]; [9]) | protein stability index (Saccharomyces cerevisiae [2]) |
| --- | --- | --- | --- | --- | --- | --- | --- | --- |
| DLQTVGLTRFIV | 0.62 ± 0.031 | 0.7362 ± 0.0061 | 0.621 ± 0.022 | 0.714 ± 0.011 | 0.149 ± 0.015 | 0.193 ± 0.0044 | 0.353 ± 0.031 | 0.236 ± 0.071 |
| DLRRYRTLIPCK | 0.38 ± 0.014 | 0.425 ± 0.023 | 0.288 ± 0.034 | 0.4805 ± 0.0034 | 0.2277 ± 0.00047 | 0.275 ± 0.048 | 0.481 ± 0.038 | 0.447 ± 0.034 |
| DPKQVRIQSSWL | 0.699 ± 0.016 | 0.721 ± 0.046 | 0.644 ± 0.042 | 0.723 ± 0.013 | 0.6273 ± 0.0026 | 0.663 ± 0.018 | 0.6863 ± 0.0034 | 0.7428 ± 0.0039 |
| DVLLVVVLGRFL | 0.403 ± 0.058 | 0.563 ± 0.063 | 0.344 ± 0.03 | 0.5481 ± 0.0036 | 0.322 ± 0.043 | 0.312 ± 0.027 | 0.535 ± 0.0089 | 0.44 ± 0.066 |
| DVPLFLPLPVSV | 0.357 ± 0.035 | 0.357 ± 0.01 | 0.278 ± 0.032 | 0.452 ± 0.015 | 0.243 ± 0.0078 | 0.297 ± 0.021 | 0.3903 ± 0.0012 | 0.392 ± 0.0097 |
| ELDVRPMVFLVA | 0.4192 ± 0.0018 | 0.4521 ± 0.0023 | 0.346 ± 0.038 | 0.4943 ± 0.0028 | 0.295 ± 0.0069 | 0.337 ± 0.027 | 0.457 ± 0.011 | 0.422 ± 0.007 |
| ESRDRRVGIANW | 0.69 ± 0.036 | 0.743 ± 0.005 | 0.647 ± 0.0092 | 0.77 ± 0.0086 | 0.648 ± 0.014 | 0.647 ± 0.011 | 0.713 ± 0.014 | 0.7252 ± 0.0026 |
| FACLTPFCLCLT | 0.527 ± 0.016 | 0.564 ± 0.015 | 0.422 ± 0.015 | 0.5742 ± 0.0044 | 0.325 ± 0.005 | 0.349 ± 0.013 | 0.51106 ± 0.0004 | 0.431 ± 0.025 |
| FALFCFVIFMSR | 0.22 ± 0.05 | 0.373 ± 0.1 | 0.245 ± 0.081 | 0.398 ± 0.034 | 0.277 ± 0.028 | 0.227 ± 0.068 | 0.381 ± 0.063 | 0.363 ± 0.06 |
| FAVTRVHLACWG | 0.453 ± 0.049 | 0.464 ± 0.0047 | 0.368 ± 0.033 | 0.493 ± 0.0079 | 0.3297 ± 0.0031 | 0.369 ± 0.03 | 0.466 ± 0.022 | 0.4649 ± 0.0013 |
| FCCFFVHMSFFL | 0.26 ± 0.0087 | 0.424 ± 0.024 | 0.298 ± 0.026 | 0.45 ± 0.0054 | 0.2646 ± 0.00099 | 0.282 ± 0.012 | 0.427 ± 0.025 | 0.483 ± 0.12 |
| FCFLLLVSFFFV | 0.234 ± 0.0069 | 0.407 ± 0.21 | 0.252 ± 0.029 | 0.388 ± 0.0052 | 0.211 ± 0.011 | 0.219 ± 0.034 | 0.33 ± 0.014 | 0.31 ± 0.028 |
| FCICRFLFIFLG | 0.44 ± 0.018 | 0.463 ± 0.012 | 0.358 ± 0.033 | 0.4917 ± 0.0036 | 0.3325 ± 0.0029 | 0.294 ± 0.029 | 0.411 ± 0.0063 | 0.336 ± 0.049 |
| FCIFAMQICTSA | 0.126 ± 0.013 | 0.173 ± 0.0037 | 0.112 ± 0.033 | 0.221 ± 0.0074 | 0.084 ± 0.015 | 0.108 ± 0.01 | 0.205 ± 0.015 | 0.18 ± 0.017 |
| FCSPFFFFLFRL | 0.283 ± 0.072 | 0.241 ± 0.032 | 0.357 ± 0.028 | 0.4269 ± 0.003 | 0.469 ± 0.0056 | 0.315 ± 0.031 | 0.361 ± 0.03 | 0.4182 ± 0.00048 |
| FFFLPLFLVLSL | 0.239 ± 0.01 | 0.158 ± 0.034 | 0.29 ± 0.025 | 0.378 ± 0.0094 | 0.486 ± 0.03 | 0.29 ± 0.03 | 0.329 ± 0.0071 | 0.363 ± 0.0047 |
| FFGFYLKFVWCG | 0.431 ± 0.062 | 0.4683 ± 0.0021 | 0.391 ± 0.024 | 0.516 ± 0.0079 | 0.146 ± 0.015 | 0.152 ± 0.019 | 0.258 ± 0.025 | 0.21 ± 0.019 |
| FFPSFGLFLCPV | 0.431 ± 0.01 | 0.471 ± 0.0067 | 0.366 ± 0.036 | 0.5001 ± 0.0015 | 0.381 ± 0.013 | 0.357 ± 0.031 | 0.4685 ± 0.0018 | 0.409 ± 0.027 |
| FFSRIIAILVLM | 0.37 ± 0.071 | 0.453 ± 0.014 | 0.337 ± 0.024 | 0.515 ± 0.016 | 0.135 ± 0.011 | 0.144 ± 0.0086 | 0.192 ± 0.035 | 0.23 ± 0.031 |
| FFVEKRVFFGII | 0.604 ± 0.017 | 0.733 ± 0.015 | 0.593 ± 0.026 | 0.738 ± 0.029 | 0.197 ± 0.013 | 0.242 ± 0.015 | 0.408 ± 0.018 | 0.369 ± 0.009 |

| Sequence | protein stability index (Saccharomyces cerevisiae [1]; [3]) | protein stability index (Saccharomyces cerevisiae [1]; [4]) | protein stability index (Saccharomyces cerevisiae [1]; [5]) | protein stability index (Saccharomyces cerevisiae [1]; [6]) | protein stability index (Saccharomyces cerevisiae [1]; [7]) | protein stability index (Saccharomyces cerevisiae [1]; [8]) | protein stability index (Saccharomyces cerevisiae [1]; [9]) | protein stability index (Saccharomyces cerevisiae [2]) |
| --- | --- | --- | --- | --- | --- | --- | --- | --- |
| FFVMVFTVEVFV | 0.0407 ± 0.015 | 0.0863 ± 0.019 | 0.0929 ± 0.015 | 0.167 ± 0.01 | 0.0639 ± 0.011 | 0.0875 ± 0.015 | 0.132 ± 0.0075 | 0.194 ± 0.02 |
| FFVWLGWGMFYG | 0.547 ± 0.034 | 0.575 ± 0.015 | 0.425 ± 0.025 | 0.561 ± 0.0085 | 0.408 ± 0.0042 | 0.437 ± 0.013 | 0.6044 ± 0.0019 | 0.528 ± 0.054 |
| FGALVVCFLTRC | 0.426 ± 0.039 | 0.511 ± 0.056 | 0.342 ± 0.027 | 0.519 ± 0.007 | 0.289 ± 0.02 | 0.302 ± 0.04 | 0.481 ± 0.027 | 0.374 ± 0.026 |
| FGGFYGRRVLII | 0.62024 ± 0.00039 | 0.682 ± 0.0097 | 0.544 ± 0.023 | 0.6748 ± 0.0054 | 0.182 ± 0.0081 | 0.209 ± 0.0024 | 0.437 ± 0.0092 | 0.327 ± 0.04 |
| FGGYLRAGVFLT | 0.643 ± 0.032 | 0.6969 ± 0.0015 | 0.645 ± 0.027 | 0.721 ± 0.0034 | 0.388 ± 0.039 | 0.387 ± 0.043 | 0.586 ± 0.016 | 0.473 ± 0.11 |
| FGPVLLVSFLFS | 0.273 ± 0.024 | 0.386 ± 0.033 | 0.242 ± 0.031 | 0.422 ± 0.027 | 0.19 ± 0.016 | 0.235 ± 0.054 | 0.4008 ± 0.0017 | 0.35 ± 0.014 |
| FGVRRSFVVFVV | 0.3827 ± 0.00079 | 0.456 ± 0.011 | 0.337 ± 0.033 | 0.556 ± 0.0058 | 0.0834 ± 0.011 | 0.0934 ± 0.015 | 0.107 ± 0.014 | 0.191 ± 0.023 |
| FHLFIRRSAVIF | 0.493 ± 0.023 | 0.576 ± 0.0062 | 0.455 ± 0.017 | 0.555 ± 0.023 | 0.3488 ± 0.0019 | 0.351 ± 0.033 | 0.458 ± 0.0063 | 0.439 ± 0.025 |
| FILFSEMFASSV | 0.132 ± 0.021 | 0.175 ± 0.0083 | 0.265 ± 0.026 | 0.149 ± 0.02 | 0.28 ± 0.015 | 0.255 ± 0.028 | 0.137 ± 0.021 | 0.26 ± 0.0085 |
| FLCIFFFFLISF | 0.25 ± 0.012 | 0.194 ± 0.0028 | 0.261 ± 0.027 | 0.32 ± 0.004 | 0.346 ± 0.023 | 0.235 ± 0.035 | 0.297 ± 0.02 | 0.27 ± 0.011 |
| FLCLLSLFFLDF | 0.532 ± 0.044 | 0.572 ± 0.024 | 0.461 ± 0.03 | 0.626 ± 0.036 | 0.462 ± 0.034 | 0.437 ± 0.011 | 0.575 ± 0.015 | 0.478 ± 0.052 |
| FLFCACIRVFSY | 0.0501 ± 0.0013 | 0.17 ± 0.019 | 0.144 ± 0.025 | 0.228 ± 0.0087 | 0.125 ± 0.0033 | 0.133 ± 0.014 | 0.195 ± 0.02 | 0.193 ± 0.0046 |
| FLFSSLFCFLFL | 0.461 ± 0.035 | 0.428 ± 0.0099 | 0.474 ± 0.021 | 0.565 ± 0.029 | 0.571 ± 0.018 | 0.46 ± 0.018 | 0.527 ± 0.0061 | 0.433 ± 0.01 |
| FLLLVFGLLIDS | 0.183 ± 0.004 |  | 0.246 ± 0.067 | 0.413 ± 0.022 | 0.188 ± 0.017 | 0.222 ± 0.03 | 0.379 ± 0.11 | 0.338 ± 0.016 |
| FLLYRFSLVGCF | 0.0567 ± 0.0082 | 0.108 ± 0.02 | 0.123 ± 0.031 | 0.194 ± 0.011 | 0.0828 ± 0.021 | 0.108 ± 0.032 | 0.189 ± 0.011 | 0.172 ± 0.026 |
| FLLYVITYRSET | 0.151 ± 0.0098 | 0.304 ± 0.046 | 0.21 ± 0.03 | 0.442 ± 0.047 | 0.161 ± 0.0042 | 0.225 ± 0.025 | 0.378 ± 0.038 | 0.335 ± 0.046 |
| FLPLLFFFFFRF | 0.377 ± 0.0075 | 0.292 ± 0.0066 | 0.391 ± 0.037 | 0.4846 ± 0.0032 | 0.569 ± 0.012 | 0.403 ± 0.022 | 0.479 ± 0.023 | 0.485 ± 0.008 |
| FLPSLSLPLLLF | 0.555 ± 0.0068 | 0.549 ± 0.02 | 0.425 ± 0.035 | 0.573 ± 0.015 | 0.376 ± 0.036 | 0.346 ± 0.017 | 0.479 ± 0.018 | 0.4318 ± 0.0012 |
| FLSLVIVLRWFL | 0.278 ± 0.048 | 0.303 ± 0.045 | 0.255 ± 0.022 | 0.381 ± 0.01 | 0.298 ± 0.021 | 0.242 ± 0.024 | 0.346 ± 0.02 | 0.347 ± 0.042 |
